{"source": "patent US6410317", "about": "“Recombinase-based methods for producing expression vectors and compositions for use in practicing the same” (Clontech Laboratories, Inc.)", "binders": {"B1": {"name": "loxP site of acceptor pCMVmycloxP (LoxPMyc-up/down) (dsDNA)", "DNA 1": "AGATAACTTCGTATAGCATACATTATACGAAGTTATA", "DNA 2": "GATCTATAACTTCGTATAATGTATGCTATACGAAGTTATCTCCA"}, "B2": {"name": "loxP site 1 of donor pD3 (LoxP1-up/down) (dsDNA)", "DNA 1": "CGCGGCCGCATAACTTCGTATAGCATACATTATACGAAGTTATCAGTCGACG", "DNA 2": "AATTCGTCGACTGATAACTTCGTATAATGTATGCTATACGAAGTTATGCGGCCGCGACGT"}, "B3": {"name": "loxP site 2 of donor pD3 (LoxP2-up/down) (dsDNA)", "DNA 1": "AATTCGGATCCATAACTTCGTATAGCATACATTATACGAAGTTATGCGGCC", "DNA 2": "AGCGGCCGCATAACTTCGTATAATGTATGCTATACGAAGTTATGGATCCG"}}, "key": {"[1]": {"target": "T1, Cre recombinase (UniProt P06956 P06956:1-343)", "T1 sequence (P06956 whole entry, one chain of several)": "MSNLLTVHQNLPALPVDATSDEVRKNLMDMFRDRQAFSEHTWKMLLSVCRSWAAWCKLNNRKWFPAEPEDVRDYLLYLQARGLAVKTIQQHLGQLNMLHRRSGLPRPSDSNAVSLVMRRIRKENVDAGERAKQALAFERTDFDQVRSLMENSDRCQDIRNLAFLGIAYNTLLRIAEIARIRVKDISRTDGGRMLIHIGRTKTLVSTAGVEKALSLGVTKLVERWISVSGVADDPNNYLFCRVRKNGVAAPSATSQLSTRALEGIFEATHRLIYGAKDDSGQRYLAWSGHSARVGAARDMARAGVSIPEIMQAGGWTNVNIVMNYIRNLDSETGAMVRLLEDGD", "experiment": "acceptor loxP site; same buffer, 37 C 15 min; loxP of this acceptor PCR-transferred to 10 acceptors, 27 of 30 clones correct with pDNR-luc", "conditions": "chain copies: 4 per synapse (inferred); SfiI and BglII overhangs before cloning; assayed within plasmid"}, "[2]": {"target": "T1, Cre recombinase", "experiment": "in vitro recombination pD3 x pCMVmycloxP, 50 mM Tris-HCl pH 7.5, 30 mM NaCl, 10 mM MgCl2, BSA, 37 C 15 min; chloramphenicol selection in E. coli", "conditions": "chain copies: 4 per synapse (inferred); AatII and EcoRI overhangs before cloning; assayed within plasmid", "description": "(§1) To achieve generation of the expression vector from the donor and acceptor, the following were mixed together on ice in a standard eppendorf microcentrifuge tube: 0.5 µg pCMVmycloxP (representing the Acceptor vector); 0.5 µg pD3 (representing the Donor vector); 2 µl 10×Cre reaction buffer (10×Cre reaction buffer contains: 500 mM Tris-HCl (pH 7.5) and 300 mM NaCl); 10 mM MgCl_2, 1 µl 20×BSA (20×BSA contains 2 mg/ml BSA (NEB)); 25 Units Cre recombinase (Novagen); H_2O to 20 µl total.\n(§2) Once the reagents were mixed, the reaction was incubated for 15 mins at 37° C. Following the reaction, the mixture was heated to 65° C. for 10 mins to inactivate the Cre enzyme. Finally, an aliquot of the reaction mix was transformed to E. coli using standard methods (e.g., electroporation), and the transformed bacteria selected on LB plates containing 60 µg/ml Chloramphenicol."}, "[3]": {"target": "T1, Cre recombinase", "experiment": "same reaction, second donor loxP site", "conditions": "chain copies: 4 per synapse (inferred); EcoRI and SapI overhangs before cloning; assayed within plasmid", "description": "as §1, §2"}}, "data": [{"binder": "B1", "values": [{"measurement": "binding result", "setting": "[1]", "result": "binds"}]}, {"binder": "B2", "values": [{"measurement": "binding result", "setting": "[2]", "result": "binds"}]}, {"binder": "B3", "values": [{"measurement": "binding result", "setting": "[3]", "result": "binds"}]}]}
